Paper PMC5074521, “Dom34 Links Translation to Protein O-mannosylation”

How the values were obtained:
Dom34 E21A [1] = target: T1, Dom34 E21A (Candida albicans, UniProt A0A1D8PSD0 1-393, E21A); test: EMSA; heparin challenge 50 ng/ul; apparent KD; UTR/6S EMSA: 10 mM Tris-HCl pH 8.0, 100 mM NaCl, 30 C 10 min, then heparin 50 ng/ul 10 min, native 5% PAGE (legend 6%); oligo EMSA: LightShift RNA EMSA kit, room temperature 20 min; footprint: RNase 1 min at 37 C; details: protein: recombinant; tags: C-terminal His6; label: 3'-32P-pCp; single strand with predicted paired regions
Dom34 [2] = target: T2, Dom34 (Candida albicans, UniProt A0A1D8PSD0 1-393); test: EMSA; heparin challenge; binding visible above 0.3 uM, no free RNA at 2.5 uM (bound or degraded); lower affinity than E21A; UTR/6S EMSA: 10 mM Tris-HCl pH 8.0, 100 mM NaCl, 30 C 10 min, then heparin 50 ng/ul 10 min, native 5% PAGE (legend 6%); oligo EMSA: LightShift RNA EMSA kit, room temperature 20 min; footprint: RNase 1 min at 37 C; details: protein: recombinant; tags: C-terminal His6; label: 3'-32P-pCp; single strand with predicted paired regions
Dom34 N317A = Dom34 N317A (Candida albicans, UniProt A0A1D8PSD0 1-393, N317A); test: EMSA; 400 nM protein, 20 nM RNA; as wild type; UTR/6S EMSA: 10 mM Tris-HCl pH 8.0, 100 mM NaCl, 30 C 10 min, then heparin 50 ng/ul 10 min, native 5% PAGE (legend 6%); oligo EMSA: LightShift RNA EMSA kit, room temperature 20 min; footprint: RNase 1 min at 37 C; details: protein: recombinant; tags: C-terminal His6; label: 3'-biotin; single strand
Dom34 E21A [3] = target: T1, Dom34 E21A; test: EMSA; 400 nM protein, 20 nM RNA; enhanced vs wild type; UTR/6S EMSA: 10 mM Tris-HCl pH 8.0, 100 mM NaCl, 30 C 10 min, then heparin 50 ng/ul 10 min, native 5% PAGE (legend 6%); oligo EMSA: LightShift RNA EMSA kit, room temperature 20 min; footprint: RNase 1 min at 37 C; details: protein: recombinant; tags: C-terminal His6; label: 3'-biotin; single strand
Dom34 [4] = target: T2, Dom34; test: EMSA; 400 nM protein, 20 nM RNA; complex I, plus II with 0.05% lauryl sarcosinate; UTR/6S EMSA: 10 mM Tris-HCl pH 8.0, 100 mM NaCl, 30 C 10 min, then heparin 50 ng/ul 10 min, native 5% PAGE (legend 6%); oligo EMSA: LightShift RNA EMSA kit, room temperature 20 min; footprint: RNase 1 min at 37 C; details: protein: recombinant; tags: C-terminal His6; label: 3'-biotin; single strand

| Binder | Kd (Dom34 E21A [1]) [nM] | binding result (Dom34 [2]) | binding result (Dom34 N317A) | binding result (Dom34 E21A [3]) | binding result (Dom34 [4]) |
| --- | --- | --- | --- | --- | --- |
| PMT1 5'-UTR RNA (full) (structured_RNA) RNA: GGCAAGAUUCUUUUUCAAGAUUUUUCAUUUUUACAACAACAACAACAACCACCACAACCACAACUAUAAACAAUUGAUAUAGCAUUAUCUUUUAAGAUUAUUGAAUAAAGGUCAAUUUAUAGCGCCCCCCCUCACUCCACCUCCUACCGUCUUUCUUUCACGCAACUAAAACAAAUUUUUAUAUUUUUAUUUUUAUUUUUAUUUUAGUUUCCCAUUCAAUAGAUC | ~100 | binds |  |  |  |
| ACAACAACAACAACAACCACCACAACCACAACUAUAAACAAU (ssRNA) [PMT1 5'-UTR RNA oligonucleotide] |  |  | binds | binds | binds |
